# Assay results as given in article PMC10282093, “Structural basis of α1A-adrenergic receptor activation and recognition by an extracellular nanobody” (Nature Communications, 2023).
# Several values for one entry are separate records, joined by “and”; a condition that tells them apart may be missing. Equal entries are not always repeated.
# T1: α1AAR (Homo sapiens, UniProt P35348, N13Q/N22Q/N7Q)
# T1 construct: C-terminus truncated human α1AAR (residues 1–370, full length: 466); hemagglutinin signal peptide (N); 8×His (C); made in house; host or cells: Sf9 insect cells (baculovirus)
# T1 sequence (P35348 1-370 N7Q/N13Q/N22Q): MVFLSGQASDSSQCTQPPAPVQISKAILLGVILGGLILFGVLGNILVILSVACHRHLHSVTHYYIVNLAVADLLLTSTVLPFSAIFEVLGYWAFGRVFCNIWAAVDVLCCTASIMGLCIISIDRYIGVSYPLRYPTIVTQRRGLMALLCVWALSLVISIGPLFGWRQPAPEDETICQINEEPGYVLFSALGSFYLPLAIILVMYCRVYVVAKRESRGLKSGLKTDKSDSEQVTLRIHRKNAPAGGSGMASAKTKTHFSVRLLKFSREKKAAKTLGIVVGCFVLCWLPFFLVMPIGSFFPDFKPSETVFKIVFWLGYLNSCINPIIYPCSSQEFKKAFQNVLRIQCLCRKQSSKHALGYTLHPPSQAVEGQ
# What was measured:
# α1AAR-kOR = biological target: T2, α1AAR-kOR (Homo sapiens, UniProt P35348, DEL205-275/INS204TLMILRLKSVRLLSGSREKDRNLRRITRLVL/M115W/N13Q/N22Q/N7Q/S113R); test: [3H]prazosin radioligand binding, Sf9 membrane; settings: for [3H]prazosin binding: listed as Tam
# T2 construct: C-terminus truncated human α1AAR (residues 1–370, full length: 466); hemagglutinin signal peptide (N); FLAG (N); 8×His (C); made in house; host or cells: Sf9 insect cells (membranes)
# [1] = biological target: T3, C-terminus truncated human α1AAR (residues 1-370; N7Q, N13Q, N22Q) (Homo sapiens, UniProt P35348, N7Q | N13Q | N22Q); test: radioligand binding; [3H]prazosin competition binding with Nb29 as competitor, purified α1AAR bound to M1-Flag affinity resin; 20 mM HEPES pH 7.5, 100 mM NaCl, 0.01% MNG, 0.001% CHS, 2 mM CaCl2; 1 h at room temperature; settings: both partners purified
# T3 construct: α1A-adrenergic receptor, human, residues 1-370 (full length: 466); also called α1A-adrenergic receptor; source: Sf9 insect cells (baculovirus); not shown: FLAG, N-terminal, kept
# [2] = biological target: T3, C-terminus truncated human α1AAR …; test: radioligand binding; [3H]prazosin competition binding with Nb29 as competitor, α1AAR in Sf9 membranes; 20 mM Tris-HCl pH 7.5, 100 mM NaCl; 1 h at room temperature; settings: one partner purified
# α1AAR = biological target: T1, α1AAR; test: On-yeast titration of Nb29 for α1AAR, flow cytometry; type: binding
# Procedure: Yeast cells were analyzed by Accuri C6 and the ratio of double-positive yeast cells among anti-HA positive cells was calculated.
# [3] = 1 h, read-out: [3H]prazosin binding
# T2 sequence (P35348 with tags, fused parts or gaps with the stated changes limits assumed): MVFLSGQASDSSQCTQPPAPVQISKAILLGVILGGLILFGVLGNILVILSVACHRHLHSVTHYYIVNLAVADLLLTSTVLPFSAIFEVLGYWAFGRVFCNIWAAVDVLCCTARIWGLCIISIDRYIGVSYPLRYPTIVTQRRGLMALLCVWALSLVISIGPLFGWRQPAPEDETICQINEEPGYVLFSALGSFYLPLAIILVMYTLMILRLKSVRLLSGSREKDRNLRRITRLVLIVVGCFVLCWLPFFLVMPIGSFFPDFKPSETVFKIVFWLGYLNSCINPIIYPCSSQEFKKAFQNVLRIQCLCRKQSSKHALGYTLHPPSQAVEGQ
molecule,measurement,setting,value
"Cc1cc(C(C)(C)C)c(O)c(C)c1CC1=NCCN1 [Oxymetazoline, oxymetazoline]",remaining activity at 0.001 µM,α1AAR-kOR; [3],89.3%
same,remaining activity at 0.01 µM,α1AAR-kOR; [3],83.5%
same,remaining activity at 1 µM,α1AAR-kOR; [3],13.3%
"CCOc1ccccc1OCCN[C@H](C)Cc1ccc(OC)c(S(N)(=O)=O)c1 [Tamsulosin, tamsulosin]",[3H]prazosin binding,"α1AAR-kOR; Tam Log[M] -4, + 5 μM Nb6",0.3% and 1.4% and 0.5%
same,[3H]prazosin binding,α1AAR-kOR; Tam Log[M] -4,1.611% and 3.516% and 2.93%
same,[3H]prazosin binding,"α1AAR-kOR; Tam Log[M] -5, + 5 μM Nb6",2.5% and 2.1% and 1.4%
same,[3H]prazosin binding,α1AAR-kOR; Tam Log[M] -5,3.223% and 3.809% and 3.369%
same,[3H]prazosin binding,"α1AAR-kOR; Tam Log[M] -6, + 5 μM Nb6",3.3% and 4.3% and 2.7%
same,[3H]prazosin binding,α1AAR-kOR; Tam Log[M] -6,4.541% and 3.809% and 4.395%
same,[3H]prazosin binding,"α1AAR-kOR; Tam Log[M] -7, + 5 μM Nb6",48.154% and 49.4541% and 47.454%
same,[3H]prazosin binding,α1AAR-kOR; Tam Log[M] -7,39.4775% and 27.2705% and 36.2061%
same,[3H]prazosin binding,"α1AAR-kOR; Tam Log[M] -8, + 5 μM Nb6",86.9072% and 94.5245% and 104.442%
same,[3H]prazosin binding,α1AAR-kOR; Tam Log[M] -8,82.3975% and 81.5186% and 80.0537%
same,[3H]prazosin binding,"α1AAR-kOR; Tam Log[M] -9, + 5 μM Nb6",108.742% and 93.5245% and 98.1248%
same,[3H]prazosin binding,α1AAR-kOR; Tam Log[M] -9,91.626% and 91.1865%
same,[3H]prazosin binding,"α1AAR-kOR; Tam Log[M] -10, + 5 μM Nb6",97.6581% and 106.126% and 95.8247%
same,[3H]prazosin binding,α1AAR-kOR; Tam Log[M] -10,84.8877% and 109.009% and 95.459%
same,[3H]prazosin binding,"α1AAR-kOR; Tam Log[M] -11, + 5 μM Nb6",98.7416% and 100.042% and 78.5899%
same,[3H]prazosin binding,α1AAR-kOR; Tam Log[M] -11,106.152% and 96.4844% and 97.3633%
"Nb6: nanobody that engages the ICL3 of the inactive-state κ-opioid receptor (antibody, V domains shown) VH: QVQLQESGGGLVQAGESLRLSCAASGTIFRLYDMGWYRRVSGNQRELVASITSGGSTKYGDSVKGRFTISRDNAKNTVYLQMSSLKPEDTAVYYCNAEYRTGIWEELLDGWGQGTQVTVSS",effect on [3H]prazosin binding,α1AAR-kOR,enhancement
same,Normalized [3H]prazosin-binding,α1AAR-kOR; with 5 μM Nb6,182.818% and 184.467% and 175.395%
"Nb29 (purified nanobody) (VHH, source: E. coli BL21(DE3), periplasmic (pET26b), purified (Ni-NTA, size-exclusion chromatography)) VHH: QVQLQESGGGLVQAGGSLRLSCAASGNISAHWKMGWYRQAPGKEREFVAGIGYANTNYADSVKGRFTISRDNAKNTVYLQMNSLKPEDTAVYYCAAYSYYRDHSYWGQGTQVTVSS",Ki,[1],6.4 µM
same,Ki,[2],41 µM
"Nb29: synthetic nanobody (single domain antibody) that binds the extracellular vestibule of α1AAR, preferentially oxymetazoline-bound (antibody, V domains shown) VH: QVQLQESGGGLVQAGGSLRLSCAASGNISAHWKMGWYRQAPGKEREFVAGIGYANTNYADSVKGRFTISRDNAKNTVYLQMNSLKPEDTAVYYCAAYSYYRDHSYWGQGTQVTVSS",Nb29-expressing yeast cells bound to α1AAR,"α1AAR; 500 μM Noradrenaline, α1AAR 4 nM",4.281% and 5.07% and 1.08%
same,Nb29-expressing yeast cells bound to α1AAR,"α1AAR; 500 μM Noradrenaline, α1AAR 16 nM",4.4164% and 6.158% and 1.447%
same,Nb29-expressing yeast cells bound to α1AAR,"α1AAR; 500 μM Noradrenaline, α1AAR 64 nM",6.534% and 6.061% and 1.603%
same,Nb29-expressing yeast cells bound to α1AAR,"α1AAR; 500 μM Oxymetazoline, α1AAR 64 nM",56.0554% and 29.8113% and 58.3201%
same,Nb29-expressing yeast cells bound to α1AAR,"α1AAR; 500 μM Oxymetazoline, α1AAR 256 nM",56.0831% and 53.0792% and 88.1579%
same,Nb29-expressing yeast cells bound to α1AAR,"α1AAR; 500 μM Phentolamine, α1AAR 4 nM",4.281% and 2.134% and 0.9772%
same,Nb29-expressing yeast cells bound to α1AAR,"α1AAR; 500 μM Phentolamine, α1AAR 16 nM",4.4164% and 5.525% and 0.626%
same,Nb29-expressing yeast cells bound to α1AAR,"α1AAR; 500 μM Phentolamine, α1AAR 64 nM",6.534% and 6.745% and 1.138%
same,Nb29-expressing yeast cells bound to α1AAR,"α1AAR; 500 μM Tam, α1AAR 4 nM",1.7094% and 4.412% and 4.11%
same,Nb29-expressing yeast cells bound to α1AAR,"α1AAR; 500 μM Tam, α1AAR 16 nM",2.954% and 4.451% and 4.373%
same,Nb29-expressing yeast cells bound to α1AAR,"α1AAR; 500 μM Tam, α1AAR 64 nM",5.7377% and 5.491% and 6.25%
same,Nb29-expressing yeast cells bound to α1AAR,"α1AAR; 500 μM Tam, α1AAR 256 nM",3.361% and 11.8841% and 12.7329%
same,Bmax,α1AAR; Apo α1AAR,35.8 ± 25.7%
same,Kd,α1AAR; Apo α1AAR,0.209 ± 0.288 µM
same,Nb29-expressing yeast cells bound to α1AAR,"α1AAR; Apo, α1AAR 4 nM",4.848% and 6.304% and 2.077%
same,Nb29-expressing yeast cells bound to α1AAR,"α1AAR; Apo, α1AAR 16 nM",4.142% and 4.886% and 1.136%
same,Bmax,α1AAR; α1AAR + 500 μM noradrenaline,10.9 ± 3.4%
same,Bmax,α1AAR; α1AAR + 500 μM oxymetazoline,75.5 ± 13.8%
same,Bmax,α1AAR; α1AAR + 500 μM phentolamine,24.8 ± 4.0%
same,Bmax,α1AAR; α1AAR + 500 μM tamsulosin,8.90 ± 1.8%
